From IntAct's records for PubMed 16782870 come the findings set out here.

B1: Proliferating cell nuclear antigen (Saccharomyces cerevisiae), P15873 (parent)
chain: MLEAKFEEASLFKRIIDGFKDCVQLVNFQCKEDGIIAQAVDDSRVLLVSLEIGVEAFQEYRCDHPVTLGMDLTSLSKILRCGNNTDTLTLIADNTPDSIILLFEDTKKDRIAEYSLKLMDIDADFLKIEELQYDSTLSLPSSEFSKIVRDLSQLSDSINIMITKETIKFVADGDIGSGSVIIKPFVDMEHPETSIKLEMDQPVDLTFGAKYLLDIIKGSSLSDRVGIRLSSEAPALFQFDLKSGFLQFFLAPKFNDEE
partner: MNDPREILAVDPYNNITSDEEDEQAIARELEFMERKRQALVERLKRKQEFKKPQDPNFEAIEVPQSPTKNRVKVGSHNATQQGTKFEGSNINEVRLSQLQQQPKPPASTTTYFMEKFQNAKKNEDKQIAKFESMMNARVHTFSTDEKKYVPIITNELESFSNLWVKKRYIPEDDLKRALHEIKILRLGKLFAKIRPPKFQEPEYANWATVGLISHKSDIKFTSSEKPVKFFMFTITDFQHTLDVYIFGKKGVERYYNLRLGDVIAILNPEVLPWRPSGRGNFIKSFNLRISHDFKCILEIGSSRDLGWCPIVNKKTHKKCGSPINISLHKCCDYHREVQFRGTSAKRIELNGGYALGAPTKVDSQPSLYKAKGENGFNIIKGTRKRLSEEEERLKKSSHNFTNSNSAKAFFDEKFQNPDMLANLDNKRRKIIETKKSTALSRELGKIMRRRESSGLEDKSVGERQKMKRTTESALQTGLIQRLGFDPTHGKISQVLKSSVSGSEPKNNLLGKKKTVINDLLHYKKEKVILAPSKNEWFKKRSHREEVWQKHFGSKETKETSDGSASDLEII
B2: Proliferating cell nuclear antigen (Saccharomyces cerevisiae), P15873 (parent)
chain: B1 chain
B3: Minichromosome maintenance protein 10 (Saccharomyces cerevisiae), P32354 (parent)
chain: B1 partner

In the first test the parent is B1. Conditions: with mcm10_yeast MCM10, P32354.
For the variant MLEAKFEEASLFKRIIDGFKDCVQLVNFQCKEDGIIAQAVDDSRVLLVSLEIGVEAFQEYRCDHPVTLGMDLTSLSKILRCGNNTDTLTLIADNTPDSIILLFEDTKKDRIAEYSLKLMDIDADFLKIEELQYDSTLSLPSSEFSKIVRDLSQLSDSINIMITKETIKFVADGDIGSGSVIIKPFVDMEHPETSIKLEMDQPVDLTFGAKYLLDIIKGSSLSDRVGIRLSSEAPALFQFDLKSGFLQFFLVPKFNDEE [A251V], the “effect of a mutation on the interaction” value is reported as “disrupting interaction”.
On the same count and under the same terms, for MLEAKFEEASLFKRIIDGFKDCVQLVNFQCKEDGIIAQAVDDSRVLLVSLEIGVEAFQEYRCDHPVTLGMDLTSLSKILRCGNNTDTLTLIADNTPDSIILLFEDTKKDRIAEYSLKLMDIDADFLKIEELQADSTLSLPSSEFSKIVRDLSQLSDSINIMITKETIKFVADGDIGSGSVIIKPFVDMEHPETSIKLEMDQPVDLTFGAKYLLDIIKGSSLSDRVGIRLSSEAPALFQFDLKSGFLQFFLAPKFNDEE [Y133A] the value was “decreasing interaction”.

In the next test the parent is B2. Conditions: with dpod3_yeast POL32, P47110.
Chain of dpod3_yeast POL32, P47110 (P47110 whole entry): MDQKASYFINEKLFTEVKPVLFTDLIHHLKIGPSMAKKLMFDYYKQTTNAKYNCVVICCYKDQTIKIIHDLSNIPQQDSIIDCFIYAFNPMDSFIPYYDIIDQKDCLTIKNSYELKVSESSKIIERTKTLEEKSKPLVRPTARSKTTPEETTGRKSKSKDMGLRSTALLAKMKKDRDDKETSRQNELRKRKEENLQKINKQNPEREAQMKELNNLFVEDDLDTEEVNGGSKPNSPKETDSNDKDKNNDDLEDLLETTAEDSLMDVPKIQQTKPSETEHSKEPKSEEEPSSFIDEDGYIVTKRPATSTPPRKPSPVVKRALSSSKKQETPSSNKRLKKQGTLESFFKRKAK
For the variant MLEAKFEEASLFKRIIDGFKDCVQLVNFQCKEDGIIAQAVDDSRVLLVSLEIGVEAFQEYRCDHPVTLGMDLTSLSKILRCGNNTDTLTLIADNTPDSIILLFEDTKKDRIAEYSLKLMDIDADFLKIEELQYDSTLSLPSSEFSKIVRDLSQLSDSINIMITKETIKFVADGDIGSGSVIIKPFVDMEHPETSIKLEMDQPVDLTFGAKYLLDIIKGSSLSDRVGIRLSSEAPALFQFDLKSGFLQFFLVPKFNDEE [A251V], the “effect of a mutation on the interaction” value is “decreasing interaction”.
Still for that read-out and setting: as for MLEAKFEEASLFKRIIDGFKDCVQLVNFQCKEDGIIAQAVDDSRVLLVSLEIGVEAFQEYRCDHPVTLGMDLTSLSKILRCGNNTDTLTLIADNTPDSIILLFEDTKKDRIAEYSLKLMDIDADFLKIEELQLDSTLSLPSSEFSKIVRDLSQLSDSINIMITKETIKFVADGDIGSGSVIIKPFVDMEHPETSIKLEMDQPVDLTFGAKYLLDIIKGSSLSDRVGIRLSSEAPALFQFDLKSGFLQFFLAPKFNDEE [Y133L], the entry is “decreasing interaction”.
Still for that read-out and setting: for MLEAKFEEASLFKRIIDGFKDCVQLVNFQCKEDGIIAQAVDDSRVLLVSLEIGVEAFQEYRCDHPVTLGMDLTSLSKILRCGNNTDTLTLIADNTPDSIILLFEDTKKDRIAEYSLKLMDIDADFLKIEELQADSTLSLPSSEFSKIVRDLSQLSDSINIMITKETIKFVADGDIGSGSVIIKPFVDMEHPETSIKLEMDQPVDLTFGAKYLLDIIKGSSLSDRVGIRLSSEAPALFQFDLKSGFLQFFLAPKFNDEE [Y133A] the value was “decreasing interaction”.

The variants in the next test derive from B3. Conditions: with pcna_yeast POL30, P15873.
Regarding MNDPREILAVDPYNNITSDEEDEQAIARELEFMERKRQALVERLKRKQEFKKPQDPNFEAIEVPQSPTKNRVKVGSHNATQQGTKFEGSNINEVRLSQLQQQPKPPASTTTYFMEKFQNAKKNEDKQIAKFESMMNARVHTFSTDEKKYVPIITNELESFSNLWVKKRYIPEDDLKRALHEIKILRLGKLFAKIRPPKFQEPEYANWATVGLISHKSDIKFTSSEKPVKFFMFTITDFQHTADVYIFGKKGVERYYNLRLGDVIAILNPEVLPWRPSGRGNFIKSFNLRISHDFKCILEIGSSRDLGWCPIVNKKTHKKCGSPINISLHKCCDYHREVQFRGTSAKRIELNGGYALGAPTKVDSQPSLYKAKGENGFNIIKGTRKRLSEEEERLKKSSHNFTNSNSAKAFFDEKFQNPDMLANLDNKRRKIIETKKSTALSRELGKIMRRRESSGLEDKSVGERQKMKRTTESALQTGLIQRLGFDPTHGKISQVLKSSVSGSEPKNNLLGKKKTVINDLLHYKKEKVILAPSKNEWFKKRSHREEVWQKHFGSKETKETSDGSASDLEII [L242A], the “effect of a mutation on the interaction” value is “disrupting interaction”.
Still for that read-out and setting: for MNDPREILAVDPYNNITSDEEDEQAIARELEFMERKRQALVERLKRKQEFKKPQDPNFEAIEVPQSPTKNRVKVGSHNATQQGTKFEGSNINEVRLSQLQQQPKPPASTTTYFMEKFQNAKKNEDKQIAKFESMMNARVHTFSTDEKKYVPIITNELESFSNLWVKKRYIPEDDLKRALHEIKILRLGKLFAKIRPPKFQEPEYANWATVGLISHKSDIKFTSSEKPVKFFMFTITDFQHTYDVYIFGKKGVERYYNLRLGDVIAILNPEVLPWRPSGRGNFIKSFNLRISHDFKCILEIGSSRDLGWCPIVNKKTHKKCGSPINISLHKCCDYHREVQFRGTSAKRIELNGGYALGAPTKVDSQPSLYKAKGENGFNIIKGTRKRLSEEEERLKKSSHNFTNSNSAKAFFDEKFQNPDMLANLDNKRRKIIETKKSTALSRELGKIMRRRESSGLEDKSVGERQKMKRTTESALQTGLIQRLGFDPTHGKISQVLKSSVSGSEPKNNLLGKKKTVINDLLHYKKEKVILAPSKNEWFKKRSHREEVWQKHFGSKETKETSDGSASDLEII [L242Y] the value was “decreasing interaction”; for MNDPREILAVDPYNNITSDEEDEQAIARELEFMERKRQALVERLKRKQEFKKPQDPNFEAIEVPQSPTKNRVKVGSHNATQQGTKFEGSNINEVRLSQLQQQPKPPASTTTYFMEKFQNAKKNEDKQIAKFESMMNARVHTFSTDEKKYVPIITNELESFSNLWVKKRYIPEDDLKRALHEIKILRLGKLFAKIRPPKFQEPEYANWATVGLISHKSDIKFTSSEKPVKFFMFTITDFQHTLDVAIFGKKGVERYYNLRLGDVIAILNPEVLPWRPSGRGNFIKSFNLRISHDFKCILEIGSSRDLGWCPIVNKKTHKKCGSPINISLHKCCDYHREVQFRGTSAKRIELNGGYALGAPTKVDSQPSLYKAKGENGFNIIKGTRKRLSEEEERLKKSSHNFTNSNSAKAFFDEKFQNPDMLANLDNKRRKIIETKKSTALSRELGKIMRRRESSGLEDKSVGERQKMKRTTESALQTGLIQRLGFDPTHGKISQVLKSSVSGSEPKNNLLGKKKTVINDLLHYKKEKVILAPSKNEWFKKRSHREEVWQKHFGSKETKETSDGSASDLEII [Y245A], “disrupting interaction”.
